In patent US20250042968A1, “EPHRIN LIGAND MIMETIC PEPTIDES FOR THE TREATMENT OF NEURODEGENERATIVE DISEASES” (University of Miami, priority 2022, published 2025):

T1: EphB3, P54753
T1 chain: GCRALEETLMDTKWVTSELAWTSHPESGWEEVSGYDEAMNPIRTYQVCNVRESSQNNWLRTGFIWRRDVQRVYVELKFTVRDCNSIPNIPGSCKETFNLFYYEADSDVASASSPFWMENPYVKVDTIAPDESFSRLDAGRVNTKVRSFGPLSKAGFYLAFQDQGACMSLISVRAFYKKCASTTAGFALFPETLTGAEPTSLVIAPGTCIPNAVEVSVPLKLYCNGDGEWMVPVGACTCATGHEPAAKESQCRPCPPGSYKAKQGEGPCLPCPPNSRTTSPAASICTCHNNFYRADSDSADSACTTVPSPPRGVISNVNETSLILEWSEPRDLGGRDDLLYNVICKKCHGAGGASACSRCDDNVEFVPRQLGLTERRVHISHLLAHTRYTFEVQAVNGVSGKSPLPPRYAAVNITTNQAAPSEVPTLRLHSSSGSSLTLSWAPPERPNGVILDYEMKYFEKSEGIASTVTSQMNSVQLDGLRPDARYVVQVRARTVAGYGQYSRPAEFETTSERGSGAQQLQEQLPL

T2: EphB2, P29323
T2 chain: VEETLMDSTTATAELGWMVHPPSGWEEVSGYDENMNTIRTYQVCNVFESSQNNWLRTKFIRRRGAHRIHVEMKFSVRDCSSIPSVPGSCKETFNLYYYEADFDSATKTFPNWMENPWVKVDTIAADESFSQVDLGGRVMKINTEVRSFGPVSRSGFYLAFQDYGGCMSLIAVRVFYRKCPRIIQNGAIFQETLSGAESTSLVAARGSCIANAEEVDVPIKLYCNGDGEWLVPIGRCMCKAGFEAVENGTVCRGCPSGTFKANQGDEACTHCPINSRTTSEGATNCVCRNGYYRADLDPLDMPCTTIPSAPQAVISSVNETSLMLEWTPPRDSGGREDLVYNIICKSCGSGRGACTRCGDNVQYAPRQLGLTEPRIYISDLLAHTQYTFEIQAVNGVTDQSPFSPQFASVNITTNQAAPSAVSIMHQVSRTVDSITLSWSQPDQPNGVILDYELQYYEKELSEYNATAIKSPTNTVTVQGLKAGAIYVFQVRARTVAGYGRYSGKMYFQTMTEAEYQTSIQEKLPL


What was measured:
Assay in all cases: BLI
Details in all cases: modification not given
EphB3, P54753 = biological target: T1, EphB3, P54753
EphB2, P29323 = biological target: T2, EphB2, P29323
EphA2, P29317 = biological target: EphA2, P29317
EphA2, P29317, sequence (P29317 25-534): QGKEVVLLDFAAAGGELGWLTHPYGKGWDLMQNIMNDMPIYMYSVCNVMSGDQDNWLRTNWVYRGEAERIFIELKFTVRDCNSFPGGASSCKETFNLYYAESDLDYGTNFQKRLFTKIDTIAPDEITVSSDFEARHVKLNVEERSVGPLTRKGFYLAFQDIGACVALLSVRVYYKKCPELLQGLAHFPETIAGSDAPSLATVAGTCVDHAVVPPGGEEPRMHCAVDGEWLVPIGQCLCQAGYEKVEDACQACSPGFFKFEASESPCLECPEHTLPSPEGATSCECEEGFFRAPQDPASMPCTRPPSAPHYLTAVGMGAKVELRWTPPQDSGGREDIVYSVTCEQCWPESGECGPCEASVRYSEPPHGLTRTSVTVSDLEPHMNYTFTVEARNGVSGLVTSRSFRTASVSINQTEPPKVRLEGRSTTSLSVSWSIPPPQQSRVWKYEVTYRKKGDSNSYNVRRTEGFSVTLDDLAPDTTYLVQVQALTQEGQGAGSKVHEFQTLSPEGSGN

Kd (EphB3, P54753)	Kd (EphB2, P29323)	Kd (EphA2, P29317)	Binder
5070 µM	–	–	KFQLFSPFLWGFEF [xEFN_RBD2]
156 µM	263 µM	178 µM	QEFSPNLWGLEFKKN [xEFN_RBD4]
